Assay [1] addresses HIV-1 reverse transcriptase p66 (HIV-1). The assay is described as follows: SEC; HiLoad 26/60 superdex 200 column, p66 and p66∆PL run separately; 50 mM Tris–HCl, pH 8.0, 200 mM NaCl, 1 mM EDTA; 0.5 ml/min; 4 °C; absorbance at 280 nm; monomer to dimer. On the technique in general: In gel filtration, larger molecules generally elute earlier.
Assay [2] shares this target. In words: NMR (1H-13C HMQC of Ile delta-methyl-labelled protein, time-dependent); [^13CH3-Ile]p66 homodimerization; successive 5.5-hr spectra after dimerization conditions were introduced; 25 mM Tris-HCl-d11 in D2O, pD 7.51, 100 mM KCl, 0.02% NaN3; 35 °C; apparent time constants; monomer to dimer.
The target of assay [3] is HIV-1 reverse transcriptase p51 (HIV-1) (UniProt P03366). In words: NMR (1H-13C HMQC of Ile delta-methyl-labelled protein); 150 µM [^13CH3-Ile]p51 in 25 mM Tris-HCl-d11 in D2O (pD 7.5), 800 mM KCl, 20 mM MgCl2, 0.02% NaN3 (high salt to stabilise the homodimer); monomer to dimer.
Assay [4] deals with HIV-1 reverse transcriptase p66 (HIV-1). In words: NMR (1H-13C HMQC of Ile delta-methyl-labelled protein, time-dependent); 45 µM [^13CH3-Ile]p66∆PL with 90 µM unlabeled p66 (twofold excess); 25 mM Tris-HCl-d11, pD 7.5, 100 mM KCl, 0.02% NaN3; successive 5.5-hr spectra; 35 °C; apparent time constants.

This is an account of results in article PMC4452869.

What is called stoichiometry N is a count of units in the complex or per binding partner. “HIV-1 reverse transcriptase p66 (enzyme)”: in assay [1], the dimer/monomer ratio (percent dimer) came out at 75 % dimer and the stoichiometry N was 2. Moreover, the apparent time constant of dimer formation (Ile382E resonance) in assay [2] was 2.4 h.
Turning to “HIV-1 reverse transcriptase p51 (from UniProt P03366 600-1039) (natural protein)”, in assay [3], the percent dimer amounted to 90%.
In the case of “p66∆PL, p66 deletion mutant lacking palm loop residues 219–230 (enzyme)”, in assay [4], the apparent time constant of growth of the dimer resonance (Ile47C) was 8.8 h, the apparent time constant of monomer decay (Ile47M resonance) came to 9.1 h, the apparent time constant of monomer decay (Ile393M resonance) stood at 9.3 h and the mean monomer decay time constant came out at 9 h. In addition, in assay [4], the percent dimerized (limit reached) fell in the range of 80 to 90%; the percent of the Ile47' intensity in the dimer species, initial spectra fell in the range of 30 to 40%; the percent of the Ile47' intensity in the dimer species, limiting value turned out to be 80%.
